Assay results: publication PMC10784507

Molecular target: holo-SDHA-SDHAF2 complex (preformed from purified proteins) (human) (UniProt P31040)
Assay: pull-down; preformed holo-SDHA-SDHAF2 (2 µM, His6 on SDHA) incubated with SDHAF4 or its variants, with or without 5 mM fumarate, 30 min 25 °C, then held on Ni-NTA agarose; SDS-PAGE with Coomassie, western blot for the truncated variants

Sequence of holo-SDHA-SDHAF2 complex (preformed from purified proteins) (human) (P31040 43-664, chain 1 of 2): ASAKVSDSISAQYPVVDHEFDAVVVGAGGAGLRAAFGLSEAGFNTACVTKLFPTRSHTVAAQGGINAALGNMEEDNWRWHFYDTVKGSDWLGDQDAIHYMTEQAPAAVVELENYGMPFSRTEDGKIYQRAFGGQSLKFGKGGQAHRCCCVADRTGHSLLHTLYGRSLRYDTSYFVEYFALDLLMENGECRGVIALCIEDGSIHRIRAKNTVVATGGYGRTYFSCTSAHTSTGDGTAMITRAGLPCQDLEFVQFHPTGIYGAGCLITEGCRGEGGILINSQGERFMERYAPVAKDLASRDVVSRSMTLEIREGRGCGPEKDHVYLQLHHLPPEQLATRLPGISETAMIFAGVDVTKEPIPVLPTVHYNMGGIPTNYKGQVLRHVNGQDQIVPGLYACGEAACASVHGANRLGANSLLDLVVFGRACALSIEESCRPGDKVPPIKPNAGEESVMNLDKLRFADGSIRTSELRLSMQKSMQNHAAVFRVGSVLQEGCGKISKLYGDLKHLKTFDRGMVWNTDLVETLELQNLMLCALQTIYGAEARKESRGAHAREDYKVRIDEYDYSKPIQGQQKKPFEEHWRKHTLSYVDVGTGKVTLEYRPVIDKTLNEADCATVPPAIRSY
Sequence of holo-SDHA-SDHAF2 complex (preformed from purified proteins) (human) (Q9NX18 37-166, chain 2 of 2, further chain): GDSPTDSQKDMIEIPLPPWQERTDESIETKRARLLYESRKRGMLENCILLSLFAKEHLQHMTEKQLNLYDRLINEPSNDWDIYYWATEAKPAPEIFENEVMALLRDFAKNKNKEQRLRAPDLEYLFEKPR
Sequence of SDHAF4^E92N (Q5VUM1 21-108 E92N, stated change not applied): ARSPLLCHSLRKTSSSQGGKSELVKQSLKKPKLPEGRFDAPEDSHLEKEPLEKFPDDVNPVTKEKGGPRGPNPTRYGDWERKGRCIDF

## SDHAF4^E92N (from UniProt Q5VUM1 21-108) (natural protein)
  percent of SDHAF2 displaced from the SDHA-AF2 complex: 40 to 50%
